These results are taken from paper PMC4674770, “Aβ-dependent reduction of NCAM2-mediated synaptic adhesion contributes to synapse loss in Alzheimer's disease” (Nature Communications, 2015).

The assay deals with T1, Aβ1-42 peptide (Aβ1-42 oligomers, Aβ-derived diffusible ligands) (UniProt P05067 672-713).
T1 construct: amyloid-beta peptide 1-42, the cut product of the amyloid precursor protein APP; numbers count on: the Aβ peptide; Used as oligomers: by SDS-PAGE and western blot mainly tetramers (~18 kDa) with a minor monomer band (~4.5 kDa); also called synthetic Aβ_(1-42); source: bought: AbcamBiochemicals (synthetic Aβ1-42), prepared as Aβ-derived diffusible ligands
Kind of assay: ELISA; NCAM2-ED (25 nM) or BSA (25 nM) held on MaxiSorp 96-well plates coated with antibodies against the extracellular domain of NCAM2; Aβ1-42 7.8-250 nM in 0.05% Tween 20 and 0.1% BSA; bound Aβ1-42 detected with antibodies against Aβ1-42 and HRP-conjugated secondary antibodies. The conditions noted are these: both partners purified.

B1: recombinant extracellular domain of NCAM2 (NCAM2-ED) (domain or fragment, mouse, UniProt O35136 20-698, looked up)
chain: LLQVTISLSKVELSVGESKFFTCTAIGEPESIDWYNPQGEKIISTQRVMLQKEGVRSRLTIYNANIEDAGIYRCQATDAKGQTQEATVVLEIYQKLTFREVVSPQEFKQGEDAEVVCRVSSSPAPAVSWLYHNEEVTTIPDNRFAVLANNNLQILNINKSDEGIYRCEGRVEARGEIDFRDIIVIVNVPPAIMMPQKSFNATAERGEEMTLTCKASGSPDPTISWFRNGKLIEENEKYILKGSNTELTVRNIINKDGGSYVCKATNKAGEDQKQAFLQVFVQPHILQLKNETTSENGHVTLVCEAEGEPVPEITWKRAIDGVMFSEGDKSPDGRIEVKGQHGRSSLHIRDVKLSDSGRYDCEAASRIGGHQRSMHLDIEYAPKFVSNQTMYYSWEGNPINISCDVTANPPASIHWRREKLLLPAKNTTHLKTHSVGRKMILEIAPTSDNDFGRYNCTATNRIGTRFQEYILELADVPSSPHGVKIIELSQTTAKISFNKPESHGGVPIHHYQVDVKEVASETWKIVRSHGVQTMVVLSSLEPNTTYEIRVAAVNGKGQGDYSKIEIFQTLPVREPSPPSIHGQPSSGKSFKISITKQDDGGAPILEYIVKYRSKDKEDQWLEKKVQGNKDHIILEHLQWTMGYEVQITAANRLGYSEPTVYEFSMPPKPNIIKDTLFNG
notes: signal peptide in the construct; neural cell adhesion molecule 2 (NCAM2, OCAM), mouse, extracellular domain, amino acids 1-698, amplified from a mouse brain cDNA library; About 100 kDa on gels; also called recombinant soluble extracellular domains of NCAM2; source: CHO cells (CHO-K1), stably transfected, secreted into the culture medium; purified (40% ammonia sulphate, desalted, …)
Take B1: the binding result is given as “binds”.
